These results are taken from PMC10160951 (Proceedings of the National Academy of Sciences of the …, 2023).

The target of assay [1] is full-length SNAP-tagged NKG2D on HEK293 TRex cells (co-expressed with DAP10) (human) (UniProt P26718). In words: FRET or BRET.
Assay [2] has as its target T1, MICA ECD (24 to 297), not dye-labeled (human, UniProt Q29983 24-297).
T1 sequence: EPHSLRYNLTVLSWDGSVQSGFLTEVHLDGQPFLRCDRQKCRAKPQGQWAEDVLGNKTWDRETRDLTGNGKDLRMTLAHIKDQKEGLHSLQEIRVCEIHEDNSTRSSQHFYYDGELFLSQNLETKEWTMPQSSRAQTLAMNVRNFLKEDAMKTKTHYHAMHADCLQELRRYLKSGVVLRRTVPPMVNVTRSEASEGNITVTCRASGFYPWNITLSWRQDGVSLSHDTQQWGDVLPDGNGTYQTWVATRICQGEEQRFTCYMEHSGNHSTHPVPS
In words: SEC-MALS.

In assay [3] the target is T1, MICA ECD (24 to 297), not dye-labeled. As to the kind of experiment: SPR.
Assay [4] addresses T2, Alexa Fluor 647-labeled MICB ECD (24 to 297) (human, UniProt Q29980 24-297, AF647 label on Cys213).
T2 sequence: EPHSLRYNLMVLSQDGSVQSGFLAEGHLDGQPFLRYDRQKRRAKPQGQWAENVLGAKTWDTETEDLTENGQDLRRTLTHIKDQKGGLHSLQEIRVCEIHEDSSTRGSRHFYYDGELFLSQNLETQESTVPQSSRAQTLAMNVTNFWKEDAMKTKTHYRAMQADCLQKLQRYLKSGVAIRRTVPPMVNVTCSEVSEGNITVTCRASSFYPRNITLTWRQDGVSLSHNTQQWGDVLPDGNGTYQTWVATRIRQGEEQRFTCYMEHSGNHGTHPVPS
In words: FRET or BRET.

In turn, “Alexa Fluor 647-labeled ULBP6 ECD (29 to 207) (from UniProt Q5VY80 29-207) (ligand)” returned a Kd in assay [1] of 2.5 nM.

B1: hNKG2D 90-216, S117E, I173S mutant (domain or fragment)
chain: MGPLTESYCGPCPKNWICYKNNCYQFFDEEKNWYESQASCMSQNASLLKVYSKEDQDLLKLVKSYHWMGLVHIPTNGSWQWEDGSSLSPNLLTIIEMQKGDCALYASSFKGYIENCSTPNTYICMQRTV
In the case of B1, the binding result in assay [2] was “binds”.

B2: biotinylated and detagged NKG2D ECD (90 to 216) (domain or fragment)
chain: PLTESYCGPCPKNWICYKNNCYQFFDESKNWYESQASCMSQNASLLKVYSKEDQDLLKLVKSYHWMGLVHIPTNGSWQWEDGSILSPNLLTIIEMQKGDCALYASSFKGYIENCSTPNTYICMQRTV
modifications: biotin on the Avi tag
Take B2: in assay [3], the affinity, expressed as Kd, was 48 nM.

B3: full-length SNAP-tagged NKG2D on HEK293 TRex cells (co-expressed with DAP10) (receptor)
chain: MGWIRGRRSRHSWEMSEFHNYNLDLKKSDFSTRWQKQRCPVVKSKCRENASPFFFCCFIAVAMGIRFIIMVTIWSAVFLNSLFNQEVQIPLTESYCGPCPKNWICYKNNCYQFFDESKNWYESQASCMSQNASLLKVYSKEDQDLLKLVKSYHWMGLVHIPTNGSWQWEDGSILSPNLLTIIEMQKGDCALYASSFKGYIENCSTPNTYICMQRTV
modifications: terbium label on the SNAP-tag
The molecule B3 registered a Kd in assay [4] of 700 nM. That is a sub-micromolar value.
